Data as given in US8933039.
Where a chain is given by its changes, count along the chain named.

How the values were obtained:
[1] = target: T1, [Pro3]hGLP-2(1-33)
T1 chain: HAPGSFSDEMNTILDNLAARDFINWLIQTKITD

[2] = target: T2, [Tyr2]hGLP-2(1-33)
T2 chain: T1 chain with A2Y, P3D

[3] = target: T3, [Phe2]hGLP-2(1-33)
T3 chain: T1 chain with A2F, P3D

[4] = target: T4, [desNH2Tyr1]hGLP-2(1-33)
T4 chain: T1 chain with H1Y, P3D

[5] = target: T5, [tBuGly2]hGLP-2
T5 chain: T1 chain with A2X, P3D

[6] = target: T6, [Asn2]hGLP-2(1-33)
T6 chain: T1 chain with A2N, P3D

[7] = target: T7, [Ser2]hGLP-2(1-33)
T7 chain: T1 chain with A2S, P3D

[8] = target: T8, [Met2]hGLP-2(1-33)
T8 chain: T1 chain with A2M, P3D

[9] = target: T9, [Gly2, Tyr34]hGLP-2(1-34)
T9 chain: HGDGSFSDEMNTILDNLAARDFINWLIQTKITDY

[10] = target: T10, [Asp2]hGLP-2(1-33)
T10 chain: T1 chain with A2D, P3D

[11] = target: T11, [Gly2,Ala24]hGLP-2(1-33)
T11 chain: T1 chain with A2G, P3D, N24A

[12] = target: T12, [Pro2]hGLP-2(1-33)
T12 chain: T1 chain with A2P, P3D

[13] = target: T13, [Arg-l]ratGLP-2(-1-33)
T13 chain: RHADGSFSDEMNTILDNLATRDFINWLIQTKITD

[14] = target: T14, [His2]hGLP-2(1-33)
T14 chain: T1 chain with A2H, P3D

[15] = target: T15, [Asp1]hGLP-2(1-33)
T15 chain: T1 chain with H1D, P3D

[16] = target: T16, [Ala4]ratGLP-2(1-33)
T16 chain: T1 chain with P3D, G4A, A19T

[17] = target: T17, [bAla2]hGLP-2(1-33)
T17 chain: T1 chain with A2X, P3D

[18] = target: T18, [Gly2]ratGLP-2(1-33)
T18 chain: T1 chain with A2G, P3D, A19T

[19] = target: T19, [Ile2]hGLP-2(1-33)
T19 chain: T1 chain with A2I, P3D

[20] = target: T20, [PhGly2]hGLP-2(1-33)
T20 chain: T1 chain with A2X, P3D

[21] = target: T21, [Ala5, Ala7]hGLP-2(1-33)
T21 chain: T1 chain with P3D, S5A, S7A

[22] = target: T22, [Arg-2,Arg-1]ratGLP-2(2-33)
T22 chain: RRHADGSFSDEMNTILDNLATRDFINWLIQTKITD

[23] = target: T23, [Pro1]hGLP-2(1-33)
T23 chain: T1 chain with H1P, P3D

[24] = target: T24, [Gly2,Ala5]hGLP-2(1-33)
T24 chain: T1 chain with A2G, P3D, S5A

[25] = target: T25, [DAla2]ratGLP-2(1-33)
T25 chain: T1 chain with P3D, A19T

[26] = target: T26, [Tyr1]ratGLP-2(1-33)
T26 chain: T1 chain with H1Y, P3D, A19T

[27] = target: T27, [Glu2]hGLP-2(1-33)
T27 chain: T1 chain with A2E, P3D

[28] = target: T28, [Tyr1, Gly2]hGLP-2(1-33)
T28 chain: T1 chain with H1Y, A2G, P3D

[29] = target: T29, [aAbu2]hGLP-2(1-33)
T29 chain: T1 chain with A2X, P3D

[30] = target: T30, [Arg30]hGLP-2(1-33)
T30 chain: T1 chain with P3D, K30R

[31] = target: T31, [Gly2,Ala4]hGLP-2(1-33)
T31 chain: T1 chain with A2G, P3D, G4A

[32] = target: T32, [Gly2]hGLP-2(1-33)
T32 chain: T1 chain with A2G, P3D

[33] = target: T33, [Tyr25]hGLP-2(1-33)
T33 chain: T1 chain with P3D, W25Y

[34] = target: T34, [Ala1,Gly2]hGLP-2(1-33)
T34 chain: T1 chain with H1A, A2G, P3D

[35] = target: T35, [Pen2]hGLP-2(1-33)
T35 chain: T1 chain with A2X, P3D

[36] = target: T36, [Val2]hGLP-2(1-33)
T36 chain: T1 chain with A2V, P3D

[37] = target: T37, [Val2]GLP-2(1-33)
T37 chain: T1 chain with A2V, P3D, A19T

[38] = target: T38, ratGLP-2(1-33)
T38 chain: T1 chain with P3D, A19T

[39] = target: T39, hGLP-2(1-33)
T39 chain: T1 chain with P3D

[40] = target: T40, [Thr2]hGLP-2(1-33)
T40 chain: T1 chain with A2T, P3D

[41] = target: T41, [Gly2, Arg34]hGLP-2(1-34)
T41 chain: T9 chain with Y34R

[42] = target: T42, [Nval2]hGLP-2(1-33)
T42 chain: T1 chain with A2X, P3D

[43] = target: T43, [Phe25]hGLP-2(1-33)
T43 chain: T1 chain with P3D, W25F

[44] = target: T44, [Glu3]ratGLP-2(1-33)
T44 chain: T1 chain with P3E, A19T

[45] = target: T45, [Glu33]hGLP-2(1-33)
T45 chain: T1 chain with P3D, D33E

[46] = target: T46, [D-Ala2]hGLP-2(1-33)
T46 chain: T1 chain with P3D

[47] = target: T47, [Gly2,Ala3]hGLP-2(1-33)
T47 chain: T1 chain with A2G, P3A

[48] = target: T48, [Ser2,Gln3]hGLP-2(1-33)
T48 chain: T1 chain with A2S, P3Q

[49] = target: T49, [Lys2]hGLP-2(1-33)
T49 chain: T1 chain with A2K, P3D

[50] = target: T50, Ac-ratGLP-2(1-33)
T50 chain: T1 chain with P3D, A19T

[51] = target: T51, [Aib2]hGLP-2(1-33)
T51 chain: T1 chain with A2X, P3D

[52] = target: T52, [Gln2]hGLP-2(1-33)
T52 chain: T1 chain with A2Q, P3D

B1: human placental DPP-IV (Calbiochem, La Jolla, Calif., cat. #317624) (protein)
chain: MKTPWKVLLGLLGAAALVTIITVPVVLLNKGTDDATADSRKTYTLTDYLKNTYRLKLYSLRWISDHEYLYKQENNILVFNAEYGNSSVFLENSTFDEFGHSINDYSISPDGQFILLEYNYVKQWRHSYTASYDIYDLNKRQLITEERIPNNTQWVTWSPVGHKLAYVWNNDIYVKIEPNLPSYRITWTGKEDIIYNGITDWVYEEEVFSAYSALWWSPNGTFLAYAQFNDTEVPLIEYSFYSDESLQYPKTVRVPYPKAGAVNPTVKFFVVNTDSLSSVTNATSIQITAPASMLIGDHYLCDVTWATQERISLQWLRRIQNYSVMDICDYDESSGRWNCLVARQHIEMSTTGWVGRFRPSEPHFTLDGNSFYKIISNEEGYRHICYFQIDKKDCTFITKGTWEVIGIEALTSDYLYYISNEYKGMPGGRNLYKIQLSDYTKVTCLSCELNPERCQYYSVSFSKEAKYYQLRCSGPGLPLYTLHSSVNDKGLRVLEDNSALDKMLQNVQMPSKKLDFIILNETKFWYQMILPPHFDKSKKYPLLLDVYAGPCSQKADTVFRLNWATYLASTENIIVASFDGRGSGYQGDKIMHAINRRLGTFEVEDQIEAARQFSKMGFVDNKRIAIWGWSYGGYVTSMVLGSGSGVFKCGIAVAPVSRWEYYDSVYTERYMGLPTPEDNLDHYRNSTVMSRAENFKQVEYLLIHGTADDNVHFQQSAQISKALVDVGVDFQAMWYTDEDHGIASSTAHQHIYTHMSHFIKQCFSLP
[1]
  % Cleaved by DPP-IV: 0%
[2]
  % Cleaved by DPP-IV: 0%
[3]
  % Cleaved by DPP-IV: 0%
[4]
  % Cleaved by DPP-IV: 15%
[5]
  % Cleaved by DPP-IV: 0%
[6]
  % Cleaved by DPP-IV: 0%
[7]
  % Cleaved by DPP-IV: 0%
[8]
  % Cleaved by DPP-IV: 0%
[9]
  % Cleaved by DPP-IV: 0%
[10]
  % Cleaved by DPP-IV: 0%
[11]
  % Cleaved by DPP-IV: 0%
[12]
  % Cleaved by DPP-IV: 16%
[13]
  % Cleaved by DPP-IV: 0%
[14]
  % Cleaved by DPP-IV: 0%
[15]
  % Cleaved by DPP-IV: 0%
[16]
  % Cleaved by DPP-IV: 72%
[17]
  % Cleaved by DPP-IV: 0%
[18]
  % Cleaved by DPP-IV: 0%
  extent of cleavage after 24 hour incubation (RP-HPLC): No cleavage products were detected
[19]
  % Cleaved by DPP-IV: 0%
[20]
  % Cleaved by DPP-IV: 0%
[21]
  % Cleaved by DPP-IV: 77%
[22]
  % Cleaved by DPP-IV: 0%
[23]
  % Cleaved by DPP-IV: 0%
[24]
  % Cleaved by DPP-IV: 0%
[25]
  % Cleaved by DPP-IV: 0%
  extent of cleavage after 24 hour incubation (RP-HPLC): No cleavage products were detected
[26]
  % Cleaved by DPP-IV: 100%
[27]
  % Cleaved by DPP-IV: 0%
[28]
  % Cleaved by DPP-IV: 0%
[29]
  % Cleaved by DPP-IV: 49%
[30]
  % Cleaved by DPP-IV: 59%
[31]
  % Cleaved by DPP-IV: 0%
[32]
  % Cleaved by DPP-IV: 0%
[33]
  % Cleaved by DPP-IV: 48%
[34]
  % Cleaved by DPP-IV: 0%
[35]
  % Cleaved by DPP-IV: 20%
[36]
  % Cleaved by DPP-IV: 13%
[37]
  % Cleaved by DPP-IV: 0%
[38]
  % Cleaved by DPP-IV: 58%
  extent of cleavage after 24 hour incubation (RP-HPLC): 22% of the control peptide, rGLP-2, was cleaved by DPP-IV
[39]
  % Cleaved by DPP-IV: 60%
[40]
  % Cleaved by DPP-IV: 0%
[41]
  % Cleaved by DPP-IV: 0%
[42]
  % Cleaved by DPP-IV: 0%
[43]
  % Cleaved by DPP-IV: 54%
[44]
  % Cleaved by DPP-IV: 50%
[45]
  % Cleaved by DPP-IV: 55%
[46]
  % Cleaved by DPP-IV: 0%
[47]
  % Cleaved by DPP-IV: 0%
[48]
  % Cleaved by DPP-IV: 0%
[49]
  % Cleaved by DPP-IV: 0%
[50]
  % Cleaved by DPP-IV: 0%
[51]
  % Cleaved by DPP-IV: 0%
[52]
  % Cleaved by DPP-IV: 0%
